Source: patent US20250340631A1 (HARBOUR BIOMED SHANGHAI, published 2025)
Read-outs that look alike come from different tables or passages of the source.

What was measured:
[1] = molecular target: T1, human CD3 on Jurkat cells (human, UniProt P07766 23-207); assay: FACS on Jurkat cells (CD3)
T1 construct: whole, on cells; on cells it stands in the whole CD3/TCR complex; also called CD3-expressing cells
Description: (§1) Antibodies were assayed for binding affinity by FACS. Test cells include HEK293/hCLDN18.2, HEK293/hCLDN18.1, NUGC4_D8 and Jurkat cells. […] The cell density was adjusted to 10⁶ cells/mL, and 50 μL of the cell suspension was added to each well of a 96-well plate. Antibodies were diluted to different concentrations with FACS buffer, and 50 μL of the antibody dilution was added to each well of the 96-well plate. After 2 h of incubation at 4° C., the plate was washed twice with FACS buffer. […] After 1 h of incubation at 4° C., the plate was washed twice with FACS buffer. The cells were resuspended in fixative solution, and then the fluorescence of the cells was monitored using an FACS instrument (ACEA NovoCyte).

[2] = molecular target: human CLDN18.2 (human); assay: cell-based or functional assay
[3] = molecular target: CLDN18.2 of SNU620 cells (methionine to leucine at amino acid 149) (human, UniProt P56856-2 1-261); assay: cell-based or functional assay
CLDN18.2 of SNU620 cells (methionine to leucine at amino acid 149), sequence (P56856 other isoform, or with tags, fused parts or gaps limits assumed): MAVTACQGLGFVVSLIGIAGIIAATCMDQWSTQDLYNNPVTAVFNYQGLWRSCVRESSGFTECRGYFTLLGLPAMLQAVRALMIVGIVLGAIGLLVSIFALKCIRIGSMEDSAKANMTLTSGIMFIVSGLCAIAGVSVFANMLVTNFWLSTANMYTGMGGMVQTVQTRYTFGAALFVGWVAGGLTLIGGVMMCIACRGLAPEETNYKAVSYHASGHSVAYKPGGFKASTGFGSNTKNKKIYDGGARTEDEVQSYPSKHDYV

[4] = molecular target: T2, human CLDN18.1 (human, UniProt P56856 1-261); assay: FACS on HEK293/hCLDN18.1 cells
T2 construct: whole, on cells; also called hCLDN18.1
T2 sequence (P56856 whole entry): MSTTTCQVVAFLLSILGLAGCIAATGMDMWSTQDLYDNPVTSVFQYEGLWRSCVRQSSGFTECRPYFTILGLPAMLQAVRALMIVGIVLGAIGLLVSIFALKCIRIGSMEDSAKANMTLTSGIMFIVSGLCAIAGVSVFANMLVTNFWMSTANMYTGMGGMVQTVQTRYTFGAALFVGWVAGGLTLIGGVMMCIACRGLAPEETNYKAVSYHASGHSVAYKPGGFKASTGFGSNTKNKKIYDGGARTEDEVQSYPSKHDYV
Description: as §1

[5] = molecular target: T3, human CLDN18.2 (human); assay: FACS on NUGC4_D8 cells
T3 construct: the HEK293 line was made with a GenScript plasmid; also called hCLDN18.2

[6] = molecular target: T1, human CD3 on Jurkat cells; assay: FACS on Jurkat cells (CD3); remark: listed apart in the source
Description: as §1

[7] = molecular target: T3, human CLDN18.2; assay: FACS on HEK293/hCLDN18.2 cells
[8] = molecular target: T1, human CD3 on Jurkat cells; assay: FACS on Jurkat cells (CD3); remark: listed apart in the source
Description: as §1

T1 sequence (P07766 23-207): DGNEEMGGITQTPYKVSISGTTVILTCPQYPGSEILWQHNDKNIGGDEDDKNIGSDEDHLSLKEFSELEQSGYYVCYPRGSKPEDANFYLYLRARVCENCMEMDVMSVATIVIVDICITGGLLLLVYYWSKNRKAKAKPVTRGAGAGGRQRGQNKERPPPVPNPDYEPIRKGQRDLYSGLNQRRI

Binder | binding result [1] | TDCC, Titer EC50 (pM), NUGC4_D8 [2] [pM] | TDCC, Titer EC50 (pM), SNU620 [3] [pM] | binding result [4] | EC50 [5] [nM] | binding result [6] | EC50 [7] [nM] | binding result [8]
PR005519 (bispecific antibody, structure 3 (2+1 HCAb-Fc-Fab, CD3 VL-CL at the C-terminus of one HCAb chain; third chain is CD3 VH-CH1); PR001848 / PR004533; LALA) chain 1: EVQLVESGGGLVQPGGSLRLSCAASGFTFSSYWMHWVRQVPGKGLVWVSRINSDGSRTIYADSVKGRFTISRDNAKNTLYLQMNSLRAEDTAVYYCARGEDHDILTGYPIRGQGTTVTVSSASEPKSSDKTHTCPPCPAPEAAGGPSVFLFPPKPKDTLMISRTPEVTCVVVDVSHEDPEVKFNWYVDGVEVHNAKTKPREEQYNSTYRVVSVLTVLHQDWLNGKEYKCKVSNKALPAPIEKTISKAKGQPREPQVCTLPPSREEMTKNQVSLSCAVKGFYPSDIAVEWESNGQPENNYKTTPPVLDSDGSFFLVSKLTVDKSRWQQGNVFSCSVMHEALHNHYTQKSLSLSPGK chain 2: not shown chain 3: EVQLLESGGGLVQPGGSLRLSCAASGFTFSTYAMNWVRQAPGKGLEWVSRIRSKYNNYATYYADSVKDRFTISRDDSKSTLYLQMNSLRAEDTAVYYCVRHGNFGNSYVSWFAYWGQGTLVTVSSASTKGPSVFPLAPSSKSTSGGTAALGCLVKDYFPEPVTVSWNSGALTSGVHTFPAVLQSSGLYSLSSVVTVPSSSLGTQTYICNVNHKPSNTKVDKKVEPKSC | binds | 32.9 | 70.5 | no binding | 13.9 | – | – | –
PR005521 (bispecific antibody, third chain is CD3 VH-CH1; PR001848 / PR004533; LALA) chain 1: EVQLVESGGGLVQPGGSLRLSCAASGFTFSSYWMHWVRQVPGKGLVWVSRINSDGSRTIYADSVKGRFTISRDNAKNTLYLQMNSLRAEDTAVYYCARGEDHDILTGYPIRGQGTTVTVSSGGGGSGGGGSGGGGSEVQLVESGGGLVQPGGSLRLSCAASGFTFSSYWMHWVRQVPGKGLVWVSRINSDGSRTIYADSVKGRFTISRDNAKNTLYLQMNSLRAEDTAVYYCARGEDHDILTGYPIRGQGTTVTVSSASEPKSSDKTHTCPPCPAPEAAGGPSVFLFPPKPKDTLMISRTPEVTCVVVDVSHEDPEVKFNWYVDGVEVHNAKTKPREEQYNSTYRVVSVLTVLHQDWLNGKEYKCKVSNKALPAPIEKTISKAKGQPREPQVCTLPPSREEMTKNQVSLSCAVKGFYPSDIAVEWESNGQPENNYKTTPPVLDSDGSFFLVSKLTVDKSRWQQGNVFSCSVMHEALHNHYTQKSLSLSPGK chain 2: not shown chain 3: EVQLLESGGGLVQPGGSLRLSCAASGFTFSTYAMNWVRQAPGKGLEWVSRIRSKYNNYATYYADSVKDRFTISRDDSKSTLYLQMNSLRAEDTAVYYCVRHGNFGNSYVSWFAYWGQGTLVTVSSASTKGPSVFPLAPSSKSTSGGTAALGCLVKDYFPEPVTVSWNSGALTSGVHTFPAVLQSSGLYSLSSVVTVPSSSLGTQTYICNVNHKPSNTKVDKKVEPKSC | binds | 73.9 | 41 | no binding | 13.9 | – | – | –
PR005076 (bispecific antibody, human IgG1, lambda, L234A L235A, structure 1; CD3 Fab from PR003886, CLDN18.2 VH from PR004536; LALA) EVQLVESGGGLVQPGGSLRLSCAASGFTFSSYWMYWVRQVPGKGLVWVSHINSDGSTTQYADSVKGRFTISRDNAKNMLYLQMNSLRAEDTAVYYCARDFPVLGGSHFDFQHWGQGTLVTVSSGGGGSGGGGSGGGGSEVQLVESGGGLVQPGGSLRLSCAASGFTFSSYWMYWVRQVPGKGLVWVSHINSDGSTTQYADSVKGRFTISRDNAKNMLYLQMNSLRAEDTAVYYCARDFPVLGGSHFDFQHWGQGTLVTVSSASEPKSSDKTHTCPPCPAPEAAGGPSVFLFPPKPKDTLMISRTPEVTCVVVDVSHEDPEVKFNWYVDGVEVHNAKTKPREEQYNSTYRVVSVLTVLHQDWLNGKEYKCKVSNKALPAPIEKTISKAKGQPREPQVCTLPPSREEMTKNQVSLSCAVKGFYPSDIAVEWESNGQPENNYKTTPPVLDSDGSFFLVSKLTVDKSRWQQGNVFSCSVMHEALHNHYTQKSLSLSPGK heavy: not shown light: QAVVTQEPSLTVSPGGTVTLTCRSSTGAVTTSNYANWVQQKPGQAPRGLIGGTNKRAPWTPARFSGSLLGDKAALTLLGAQPEDEAEYFCALWYSNLWVFGGGTKLTVLGQPKAAPSVTLFPPSSEELQANKATLVCLISDFYPGAVTVAWKADSSPVKAGVETTTPSKQSNNKYAASSYLSLTPEQWKSHRSYSCQVTHEGSTVEKTVAPTECS | – | 102 | – | – | – | binds | – | –
PR005072 (bispecific antibody, human IgG1, lambda, L234A L235A, structure 1; CD3 Fab from PR003886, CLDN18.2 VH from PR004533; LALA) EVQLVESGGGLVQPGGSLRLSCAASGFTFSSYWMHWVRQVPGKGLVWVSRINSDGSRTIYADSVKGRFTISRDNAKNTLYLQMNSLRAEDTAVYYCARGEDHDILTGYPIRGQGTTVTVSSGGGGSGGGGSGGGGSEVQLVESGGGLVQPGGSLRLSCAASGFTFSSYWMHWVRQVPGKGLVWVSRINSDGSRTIYADSVKGRFTISRDNAKNTLYLQMNSLRAEDTAVYYCARGEDHDILTGYPIRGQGTTVTVSSASEPKSSDKTHTCPPCPAPEAAGGPSVFLFPPKPKDTLMISRTPEVTCVVVDVSHEDPEVKFNWYVDGVEVHNAKTKPREEQYNSTYRVVSVLTVLHQDWLNGKEYKCKVSNKALPAPIEKTISKAKGQPREPQVCTLPPSREEMTKNQVSLSCAVKGFYPSDIAVEWESNGQPENNYKTTPPVLDSDGSFFLVSKLTVDKSRWQQGNVFSCSVMHEALHNHYTQKSLSLSPGK heavy: not shown light: QAVVTQEPSLTVSPGGTVTLTCRSSTGAVTTSNYANWVQQKPGQAPRGLIGGTNKRAPWTPARFSGSLLGDKAALTLLGAQPEDEAEYFCALWYSNLWVFGGGTKLTVLGQPKAAPSVTLFPPSSEELQANKATLVCLISDFYPGAVTVAWKADSSPVKAGVETTTPSKQSNNKYAASSYLSLTPEQWKSHRSYSCQVTHEGSTVEKTVAPTECS | – | 142 | 34.5 | – | 90.7 | binds | 15.7 | –
PR004603 (bispecific antibody, human IgG1, lambda, L234A L235A, structure 1 (2+1 Fab-Fc-Dual VH); CD3 Fab from PR003886, CLDN18.2 VH from PR004227; IgG1 knob/hole, LALA) EVQLVESGGGLVQPGGSLRLSCAASGFTFSSYWMHWVRQAPGKGLEWVSYINNDGSSTRYADSVKGRFTISRDNAKNTLYLQMNSLRAEDTAVYYCTEAPPYGNYERDYWGQGTLVTVSSGGGGSGGGGSGGGGSEVQLVESGGGLVQPGGSLRLSCAASGFTFSSYWMHWVRQAPGKGLEWVSYINNDGSSTRYADSVKGRFTISRDNAKNTLYLQMNSLRAEDTAVYYCTEAPPYGNYERDYWGQGTLVTVSSASEPKSSDKTHTCPPCPAPEAAGGPSVFLFPPKPKDTLMISRTPEVTCVVVDVSHEDPEVKFNWYVDGVEVHNAKTKPREEQYNSTYRVVSVLTVLHQDWLNGKEYKCKVSNKALPAPIEKTISKAKGQPREPQVCTLPPSREEMTKNQVSLSCAVKGFYPSDIAVEWESNGQPENNYKTTPPVLDSDGSFFLVSKLTVDKSRWQQGNVFSCSVMHEALHNHYTQKSLSLSPGK heavy: not shown light: QAVVTQEPSLTVSPGGTVTLTCRSSTGAVTTSNYANWVQQKPGQAPRGLIGGTNKRAPWTPARFSGSLLGDKAALTLLGAQPEDEAEYFCALWYSNLWVFGGGTKLTVLGQPKAAPSVTLFPPSSEELQANKATLVCLISDFYPGAVTVAWKADSSPVKAGVETTTPSKQSNNKYAASSYLSLTPEQWKSHRSYSCQVTHEGSTVEKTVAPTECS | – | 251 | 17.8 | – | – | binds | 33.1 | –
PR005354 (bispecific antibody, human IgG1, lambda, L234A L235A, structure 1; CD3 Fab from PR001848, CLDN18.2 VH from PR004533; LALA) EVQLVESGGGLVQPGGSLRLSCAASGFTFSSYWMHWVRQVPGKGLVWVSRINSDGSRTIYADSVKGRFTISRDNAKNTLYLQMNSLRAEDTAVYYCARGEDHDILTGYPIRGQGTTVTVSSGGGGSGGGGSGGGGSEVQLVESGGGLVQPGGSLRLSCAASGFTFSSYWMHWVRQVPGKGLVWVSRINSDGSRTIYADSVKGRFTISRDNAKNTLYLQMNSLRAEDTAVYYCARGEDHDILTGYPIRGQGTTVTVSSASEPKSSDKTHTCPPCPAPEAAGGPSVFLFPPKPKDTLMISRTPEVTCVVVDVSHEDPEVKFNWYVDGVEVHNAKTKPREEQYNSTYRVVSVLTVLHQDWLNGKEYKCKVSNKALPAPIEKTISKAKGQPREPQVCTLPPSREEMTKNQVSLSCAVKGFYPSDIAVEWESNGQPENNYKTTPPVLDSDGSFFLVSKLTVDKSRWQQGNVFSCSVMHEALHNHYTQKSLSLSPGK heavy: not shown light: QAVVTQEPSLTVSPGGTVTLTCRSSTGAVTTSNYANWVQQKPGQAPRGLIGGTNKRAPWTPARFSGSLLGDKAALTLLGAQPEDEAEYFCALWYSNLWVFGGGTKLTVLGQPKAAPSVTLFPPSSEELQANKATLVCLISDFYPGAVTVAWKADSSPVKAGVETTTPSKQSNNKYAASSYLSLTPEQWKSHRSYSCQVTHEGSTVEKTVAPTECS | binds | 11 | – | no binding | 12.6 | – | – | –
PR005422 (bispecific antibody, human IgG1, lambda, L234A L235A, structure 1; CD3 Fab from PR003886, CLDN18.2 VH from PR007247; LALA) EVQLVESGGGLVQPGGSLRLSCAASGFTFSSYWMYWVRQVPGKGLVWVSHINPLGSTTQYADSVKGRFTISRDNAKNMLYLQMNSLRAEDTAVYYCARDFPVLGGSHFDFQHWGQGTLVTVSSGGGGSGGGGSGGGGSEVQLVESGGGLVQPGGSLRLSCAASGFTFSSYWMYWVRQVPGKGLVWVSHINPLGSTTQYADSVKGRFTISRDNAKNMLYLQMNSLRAEDTAVYYCARDFPVLGGSHFDFQHWGQGTLVTVSSASEPKSSDKTHTCPPCPAPEAAGGPSVFLFPPKPKDTLMISRTPEVTCVVVDVSHEDPEVKFNWYVDGVEVHNAKTKPREEQYNSTYRVVSVLTVLHQDWLNGKEYKCKVSNKALPAPIEKTISKAKGQPREPQVCTLPPSREEMTKNQVSLSCAVKGFYPSDIAVEWESNGQPENNYKTTPPVLDSDGSFFLVSKLTVDKSRWQQGNVFSCSVMHEALHNHYTQKSLSLSPGK heavy: not shown light: QAVVTQEPSLTVSPGGTVTLTCRSSTGAVTTSNYANWVQQKPGQAPRGLIGGTNKRAPWTPARFSGSLLGDKAALTLLGAQPEDEAEYFCALWYSNLWVFGGGTKLTVLGQPKAAPSVTLFPPSSEELQANKATLVCLISDFYPGAVTVAWKADSSPVKAGVETTTPSKQSNNKYAASSYLSLTPEQWKSHRSYSCQVTHEGSTVEKTVAPTECS | – | 21.9 | 313 | – | – | – | – | binds
